In article PMC3229523, “Identification of Lactoferricin B Intracellular Targets Using an Escherichia coli Proteome Chip” (PLoS ONE, 2011):
Ends that are not written are not given here. * marks the point of attachment. Biotin = O=C1N[C@H]2[C@H](CS[C@H]2CCCCC(=O)*)N1

Legend:
Test in all cases: peptide or protein array; E. coli proteome chip: purified His-tagged proteins printed in duplicate on Fullmoon slides, blocked with 1% BSA; 10 nM N-terminal biotinylated LfcinB with 1% BSA, room temperature, 1 h; detected with DyLight 649-labeled streptavidin, ratio to DyLight 549-labeled anti-His antibody; ProCAT normalisation, local cut-off; triplicate chips
Details in all cases: both partners purified
YhhI = target: T1, YhhI (E. coli K-12, UniProt P28912 1-378)
T1 construct: YhhI, E. coli K-12
T1 sequence (looked up): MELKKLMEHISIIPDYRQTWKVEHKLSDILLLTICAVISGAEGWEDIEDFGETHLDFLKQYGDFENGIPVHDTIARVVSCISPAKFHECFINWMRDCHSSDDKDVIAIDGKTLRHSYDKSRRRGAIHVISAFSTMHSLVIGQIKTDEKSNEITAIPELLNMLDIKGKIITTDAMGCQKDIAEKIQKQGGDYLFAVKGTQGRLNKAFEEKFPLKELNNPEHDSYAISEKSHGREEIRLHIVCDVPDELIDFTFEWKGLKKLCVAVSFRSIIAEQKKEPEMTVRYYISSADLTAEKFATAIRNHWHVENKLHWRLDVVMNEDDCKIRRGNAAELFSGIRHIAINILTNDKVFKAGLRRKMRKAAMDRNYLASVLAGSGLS

AgaY = target: T2, AgaY (E. coli K-12, UniProt P0AB74 1-286)
T2 construct: AgaY, E. coli K-12
T2 sequence (P0AB74 whole entry): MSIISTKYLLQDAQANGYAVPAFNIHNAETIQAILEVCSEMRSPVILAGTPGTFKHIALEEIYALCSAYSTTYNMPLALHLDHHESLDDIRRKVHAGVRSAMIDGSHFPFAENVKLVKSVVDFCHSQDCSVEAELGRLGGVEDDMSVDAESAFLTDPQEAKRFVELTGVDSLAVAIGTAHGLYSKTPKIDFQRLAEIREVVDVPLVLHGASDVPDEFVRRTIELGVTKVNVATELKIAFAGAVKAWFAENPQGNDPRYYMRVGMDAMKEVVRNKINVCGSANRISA

YtfI = target: T3, YtfI (E. coli K-12, UniProt P39317 1-312)
T3 construct: YtfI, E. coli K-12
T3 sequence (looked up): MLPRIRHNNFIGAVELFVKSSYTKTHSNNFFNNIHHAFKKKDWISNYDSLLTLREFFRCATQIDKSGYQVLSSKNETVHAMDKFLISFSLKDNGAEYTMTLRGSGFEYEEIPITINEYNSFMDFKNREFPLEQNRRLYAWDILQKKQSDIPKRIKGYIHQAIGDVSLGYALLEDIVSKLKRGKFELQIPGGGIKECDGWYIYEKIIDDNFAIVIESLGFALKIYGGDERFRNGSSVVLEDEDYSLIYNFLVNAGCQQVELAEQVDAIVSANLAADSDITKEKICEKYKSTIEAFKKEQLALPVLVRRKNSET

YjeJ = target: T4, YjeJ (E. coli K-12, UniProt P39279 1-289)
T4 construct: YjeJ, E. coli K-12
T4 sequence (looked up): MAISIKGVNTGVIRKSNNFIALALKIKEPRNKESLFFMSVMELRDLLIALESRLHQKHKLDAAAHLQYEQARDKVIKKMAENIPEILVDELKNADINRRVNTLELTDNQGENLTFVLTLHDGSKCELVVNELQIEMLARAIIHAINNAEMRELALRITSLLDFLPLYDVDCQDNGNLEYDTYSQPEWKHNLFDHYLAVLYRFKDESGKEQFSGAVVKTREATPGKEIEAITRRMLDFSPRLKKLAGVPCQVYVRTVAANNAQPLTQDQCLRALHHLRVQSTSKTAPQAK

YbaO = target: T5, YbaO (E. coli K-12, UniProt P0ACJ5 1-152)
T5 construct: YbaO, E. coli K-12
T5 sequence (looked up): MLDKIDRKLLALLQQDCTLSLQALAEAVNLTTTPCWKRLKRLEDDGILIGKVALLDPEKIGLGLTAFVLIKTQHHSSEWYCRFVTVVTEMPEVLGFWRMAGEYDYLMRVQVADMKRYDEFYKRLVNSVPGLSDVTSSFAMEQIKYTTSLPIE

YibB = target: T6, YibB (E. coli K-12, UniProt P25666 1-285)
T6 construct: YibB, E. coli K-12
T6 sequence (looked up): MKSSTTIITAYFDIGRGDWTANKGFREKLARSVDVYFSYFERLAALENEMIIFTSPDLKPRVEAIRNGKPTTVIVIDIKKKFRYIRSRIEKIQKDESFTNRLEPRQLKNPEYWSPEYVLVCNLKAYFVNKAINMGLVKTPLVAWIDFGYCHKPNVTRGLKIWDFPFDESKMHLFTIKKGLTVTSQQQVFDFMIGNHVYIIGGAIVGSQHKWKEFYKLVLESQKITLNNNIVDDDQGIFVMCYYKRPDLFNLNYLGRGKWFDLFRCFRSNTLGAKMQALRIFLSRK

YfbR = target: T7, YfbR (E. coli K-12, UniProt P76491 1-199)
T7 construct: YfbR, E. coli K-12
T7 sequence (looked up): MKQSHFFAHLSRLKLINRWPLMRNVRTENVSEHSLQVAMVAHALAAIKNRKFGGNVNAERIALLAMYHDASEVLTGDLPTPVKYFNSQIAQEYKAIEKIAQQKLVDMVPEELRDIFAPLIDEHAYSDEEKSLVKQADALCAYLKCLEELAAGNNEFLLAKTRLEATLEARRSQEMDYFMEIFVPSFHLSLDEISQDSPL

Measured: binding result

B1: N-terminal biotinylated Lactoferricin B (peptide, UniProt P24627 36-60, looked up)
peptide: Biotin-FKCRRWQWRMKKLGAPSITCVRRAF
modifications: ends and bridges not checked
notes: lactoferricin B (LfcinB), cationic antimicrobial peptide of 25 amino acids; also called biotinylated LfcinB; biotin-labeled LfcinB; source: bought: Kelowna Inc
binds: all assays above
